Laboratory results reported in patent US20100092465A1, “TREATMENT OF GRAFT-VERSUS-HOST DISEASE” (priority 2006, published 2010).
Where “and” joins values, the source holds several entries; their conditions need not be identical. Identical values can stand only once.

Experiments:
[1] = target: T1, muIL-27 (Mus musculus, UniProt O35228+Q8K3I6); assay: Phospho-STAT3 neutralization assay, total human PBMCs, muIL-27; type: cell-based; settings: ligand muIL-27 at EC90
T1 sequence (O35228 19-228): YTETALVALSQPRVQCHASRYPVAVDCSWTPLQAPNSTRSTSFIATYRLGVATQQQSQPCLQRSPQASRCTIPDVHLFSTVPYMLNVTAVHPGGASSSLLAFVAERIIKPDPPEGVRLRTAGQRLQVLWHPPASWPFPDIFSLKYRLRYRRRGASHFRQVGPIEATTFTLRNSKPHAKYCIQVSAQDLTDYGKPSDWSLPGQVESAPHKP
T1 sequence (Q8K3I6 29-234): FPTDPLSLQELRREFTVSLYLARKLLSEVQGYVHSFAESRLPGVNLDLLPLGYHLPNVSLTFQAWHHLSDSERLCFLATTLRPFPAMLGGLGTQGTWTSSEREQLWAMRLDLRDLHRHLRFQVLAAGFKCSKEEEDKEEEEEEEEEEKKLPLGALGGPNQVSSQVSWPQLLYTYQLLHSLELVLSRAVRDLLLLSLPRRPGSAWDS
Excerpt: (§1) Whole mouse spleens were harvested from C57 B1/6 mice and washed two times with 1×PBS before being plated out at 2×10^5 cells/well in assay media (RPMI 1640 plus 10% fetal bovine serum) in 96-well, round-bottom tissue culture plates. Total human PBMC (peripheral blood mononuclear cells) were thawed from a frozen vial collected from a leukapherisis donation and washed two times with 1×PBS before being plated out at 10^6 cells/well in assay media in 96-well, round-bottom tissue culture plates. […] Following pre-incubation, treatments were added to the plates containing the cells and incubated together at 37° C. for 15 minutes.
(§2) Following incubation, cells were washed with ice-cold wash buffer (BIO-PLEX Cell Lysis Kit, BIO-RAD Laboratories, Hercules, Calif.) and put on ice to stop the reaction according to manufacturer's instructions. […]
(§3) Capture beads (BIO-PLEX Phospho-Stat3 Assay, BIO-RAD Laboratories) were combined with 50 μL of 1:1 diluted lysates and added to a 96-well filter plate according to manufacture's instructions (BIO-PLEX Phosphoprotein Detection Kit, BIO-RAD Laboratories). […] After the final wash, beads were resuspended in 125 μL/well of bead suspension buffer, shaken for 30 seconds, and read on an array reader (BIO-PLEX, BIO-RAD Laboratories) according to the manufacture's instructions. Data were analyzed using analytical softward (BIO-PLEX MANAGER 3.0, BIO-RAD Laboratories). […]

[2] = target: T2, huIL-27 (Homo sapiens, UniProt Q14213+Q8NEV9); assay: Phospho-STAT3 neutralization assay, mouse spleens, huIL-27; type: cell-based; settings: Mouse Spleens; ligand huIL-27 at EC90
T2 sequence (Q14213 21-229): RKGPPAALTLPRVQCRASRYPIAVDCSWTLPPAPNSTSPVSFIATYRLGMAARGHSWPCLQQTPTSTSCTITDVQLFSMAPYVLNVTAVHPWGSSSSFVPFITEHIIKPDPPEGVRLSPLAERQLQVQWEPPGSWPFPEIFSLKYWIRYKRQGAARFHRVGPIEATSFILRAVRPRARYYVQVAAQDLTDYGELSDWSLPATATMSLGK
T2 sequence (Q8NEV9 29-243): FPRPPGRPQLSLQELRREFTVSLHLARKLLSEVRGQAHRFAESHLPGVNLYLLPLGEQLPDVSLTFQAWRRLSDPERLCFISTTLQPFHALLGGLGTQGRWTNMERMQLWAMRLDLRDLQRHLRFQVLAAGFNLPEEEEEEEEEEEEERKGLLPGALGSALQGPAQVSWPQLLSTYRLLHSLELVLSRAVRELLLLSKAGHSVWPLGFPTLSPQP
Excerpt: as §1, §2, §3

[3] = target: T2, huIL-27; assay: Phospho-STAT3 neutralization assay, total human PBMCs, huIL-27; type: cell-based; settings: Total Human PBMCs; ligand huIL-27 at EC90
Excerpt: as §1, §2, §3

[4] = target: T1, muIL-27; assay: Phospho-STAT3 neutralization assay, mouse spleens, muIL-27; type: cell-based; settings: ligand muIL-27 at EC90
Excerpt: as §1, §2, §3

[5] = Pharmacokinetics of soluble receptors in female C57B1/6 mice; type: in vivo, mouse; settings: for clearance from the circulation, comparison in words: mouse Fc1 fusion versus human Fc5 fusion
Procedure: Studies were performed to evaluate the pharmacokinetics of the mouse (IL-27RAm(mFc1)) and human (IL-27RA-Fc5) soluble receptors in female C57B1/6 mice.
Serum was generated from each sample and analyzed by a qualified enzyme-linked immunosorbant assay (ELISA). The resulting mean serum concentration versus time profiles were then subjected to noncompartmental pharmacokinetic analyses. The following pharmacokinetic parameters were calculated: C0 and Cmax (extrapolated concentration at time zero and maximum serum concentration, respectively), Tmax (time to achieve maximum concentration), t1/2 λz (terminal half-life), AUC0-t (area under the concentration versus time curve from time zero to the last measurable time point), AUCINF (area under the concentration versus time curve extrapolated to infinity), Cl or Cl/F (clearance or clearance divided by bioavailable fraction, respectively), VSS or VZ/F (steady state volume of distribution or volume of distribution divided by the bioavailable fraction, respectively), and F (bioavailable fraction).

[6] = target: T3, mouse IL-27 (Mus musculus, UniProt O35228+Q8K3I6); assay: IL-27 inhibition of IL-2 production neutralized by IL-27RA Fc; type: cell-based
T3 sequence (O35228+Q8K3I6 with tags, fused parts or gaps): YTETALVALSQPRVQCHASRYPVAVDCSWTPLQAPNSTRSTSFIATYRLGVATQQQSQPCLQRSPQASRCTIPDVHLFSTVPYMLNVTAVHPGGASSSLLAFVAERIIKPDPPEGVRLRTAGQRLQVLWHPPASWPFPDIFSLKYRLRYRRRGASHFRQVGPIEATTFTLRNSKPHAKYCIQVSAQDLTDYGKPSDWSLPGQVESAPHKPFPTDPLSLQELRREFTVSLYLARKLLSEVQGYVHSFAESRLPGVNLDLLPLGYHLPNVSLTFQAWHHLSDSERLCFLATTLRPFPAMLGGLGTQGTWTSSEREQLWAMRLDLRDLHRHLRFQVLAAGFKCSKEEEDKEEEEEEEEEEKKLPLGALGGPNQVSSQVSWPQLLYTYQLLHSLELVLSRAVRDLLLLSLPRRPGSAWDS
Procedure: For testing of the soluble receptor, single-chain mouse IL-27 (10 ng/ml) was preincubated for 30 minutes at 37 degrees C. with either IL27RAm(mFc1) (10.0 and 5.0 .micro.g/ml), IL27RA-Fc5, mouse Fc1 protein (10.0 and 5.0 .micro.g/ml), human Fc5 protein (10.0 and 5.0 .micro.g/ml), or no recombinant protein in wells of the anti-CD3 coated plates. 4×10^5 CD4^+ CD62L high cells were added to the wells. Duplicate plates were set up for all experimental conditions. The plates were then cultured at 37 degrees for up to 72 hours. Cell supernatants were collected from one set of plates at 48 hours and from the duplicate set of plates at 72 hours. The supernatants were stored frozen at −80° C.

[7] = target: T4, mouse ligand (single-chain IL27) (Mus musculus, UniProt O35228+Q8K3I6); assay: SPR kinetics of soluble receptors with mouse IL27 ligand; settings: binding with mouse ligand; gp130 not included
T4 construct: amino-terminal peptide tag (FLAG in lot A1426F) (N)
T4 sequence (O35228+Q8K3I6 with tags, fused parts or gaps): T3 sequence (O35228+Q8K3I6 with tags, fused parts or gaps)
Procedure: Kinetic rate and affinity constant values for the mouse (IL27RAm(mFc1), Example 3) and human (IL27RA-Fc5, Example 4) soluble receptors were obtained by surface plasmon resonance (SPR) using an automated instrument (BIACORE 3000; Biacore International AB, Uppsala, Sweden). The mouse soluble receptor was tested against mouse ligand (lot A1418F), and the human soluble receptor was tested against both mouse (A1426F) and human (A1534F) ligands. For determination of the kinetic rate constants for the receptor-ligand interactions, the gp130 molecule was not included as part of the receptor complex.
The IL27 ligands used in this study were single-chain molecules comprising EBI3 connected by its C-terminus to the N-terminus of IL-27 p28 via a polypeptide linker. Each of the ligands included an amino-terminal peptide tag.
For the mouse IL27RA study, the soluble receptor was captured onto the chip surface by an isotype-specific anti-mouse Fc antibody (obtained from Jackson ImmunoResearch Laboratories, Inc., West Grove, Pa.) covalently immobilized to the chip (BIACORE CM5 chip) using the standard amine coupling protocol specified by the instrument manufacturer. […]
All data were assessed using software provided with the instrument (BIACORE Evaluation software v. 3.2). […]

B1: IL-27RAm(mFc1): fusion protein comprising the extracellular domain of mouse IL27RA and a wild type BALB/c mouse gamma2a constant region Fc tag (protein)
chain: TRPHGSPGPLQCYSVGPLGILNCSWEPLGDLETPPVLYHQSQKYHPNRVWEVKVPSKQSWVTIPREQFTMADKLLIWGTQKGRPLWSSVSVNLETQMKPDTPQIFSQVDISEEATLEATVQWAPPVWPPQKVLICQFRYKECQAETWTRLEPQLKTDGLTPVEMQNLEPGTCYQVSGRCQVENGYPWGEWSSPLSFQTPFLDPEDVWVSGTVCETSGKRAALLVWKDPRPCVQVTYTVWFGAGDITTTQEEVPCCKSPVPAWMEWAVVSPGNSTSWVPPTNLSLVCLAPESAPCDVGVSSADGSPGIKVTWKQGTRKPLEYVVDWAQDGDSLDKLNWTRLPPGNLSTLLPGEFKGGVPYRITVTAVYSGGLAAAPSVWGFREELVPLAGPAVWRLPDDPPGTPVVAWGEVPRHQLRGQATHYTFCIQSRGLSTVCRNVSSQTQTATLPNLHLGSFKLWVTVSTVAGQGPPGPNLSLHLPDNRIRWK
For B1, which IC50 [1] is on record?
The IC50 was 4.83 nM.

What about the IC50 [2] of the same molecule?
The IC50 was 9.3 nM.

What about the IC50 [3] of the same molecule?
Its IC50 is 1370 nM.

What about the IC50 [4] of the same molecule?
Its IC50 is 0.18 nM.

What about the AUC0-24 ([5]; IP, 100 μg) of the same molecule?
The AUC0-24 was 98.2 µg·h/mL.

And the AUCINF ([5]; IP, 100 μg)?
The AUCINF was 102 µg·h/mL.

And the Cl/F ([5]; IP, 100 μg)?
The Cl/F was 0.983 mL/h.

And the Tmax ([5]; IP, 100 μg)?
The Tmax was 1 h.

What about the “t1/2 λz” value ([5]; IP, 100 μg) of the same molecule?
The value was 5.17 h.

What about the Cmax ([5]; IP, 100 μg, serum) of the same molecule?
The Cmax was 13.2 µg/mL.

What about the AUC0-24 ([5]; IV, 100 μg) of the same molecule?
Its AUC0-24 is 157 µg·h/mL.

And the AUCINF ([5]; IV, 100 μg)?
Its AUCINF is 162 µg·h/mL.

And the Cl ([5]; IV, 100 μg)?
Its Cl is 0.618 mL/h.

What about the Vss ([5]; IV, 100 μg) of the same molecule?
The Vss was 3.05 mL.

What about the “t1/2 λz” value ([5]; IV, 100 μg) of the same molecule?
Its value is 5.25 h.

And the Co ([5]; IV, 100 μg, serum)?
The Co was 36.2 µg/mL.

What about the AUC0-24 ([5]; SC, 100 μg) of the same molecule?
The AUC0-24 was 56.5 µg·h/mL.

And the Tmax ([5]; SC, 100 μg)?
The Tmax was 3 h.

What about the Cmax ([5]; SC, 100 μg, serum) of the same molecule?
Its Cmax is 7.95 µg/mL.

And the “clearance from the circulation, comparison in words” value [5]?
The value was “more rapid clearance”.

And the “clearance from the circulation, comparison in words” value ([5]; listed as Zcytor1 fragment polypeptide joined to a wild-type murine immunoglobulin gamma2a)?
Its value is “rapidly cleared from the circulation”.

What about the IL-2 concentration ([6]; 48 hr, protein conc. 5 (µg/ml; Fc controls in molar equiv.) + IL-27 10 ng/ml) of the same molecule?
The IL-2 concentration was 4021.15 pg/mL.

And the IL-2 concentration ([6]; 48 hr, protein conc. 10 (µg/ml; Fc controls in molar equiv.) + IL-27 10 ng/ml, listed as mIL-27RA)?
Its IL-2 concentration is 5215.59 pg/mL and 4922.26 pg/mL.

What about the IL-2 concentration ([6]; 72 hr, protein conc. 5 (µg/ml; Fc controls in molar equiv.) + IL-27 10 ng/ml) of the same molecule?
The IL-2 concentration was 5744.95 pg/mL.

And the IL-2 concentration ([6]; 72 hr, protein conc. 10 (µg/ml; Fc controls in molar equiv.) + IL-27 10 ng/ml, listed as mIL-27RA)?
Its IL-2 concentration is 6704.62 pg/mL and 12186.7 pg/mL.

What about the “inhibition (partial block) of the ability of mouse IL-27 to inhibit IL-2 production” value ([6]; naïve CD4 T cells) of the same molecule?
Its value is ~50%.

And the ka [7]?
Its ka is 1e+07 M⁻¹ s⁻¹.

And the kd [7]?
The kd was 0.0012 s⁻¹.
